Consider three substances from PMC6382783.

In assay [1] the target is ThiS-YbeA-ssrA (Archaeoglobus fulgidus | Escherichia coli | not stated). Briefly: SEC; analytical SEC on an S200 10/300 GL column, 0.5-1 mL/min, molecular mass from Kav against a calibration curve of low molecular weight standards.
Assay [2] addresses ClpXP (ClpXΔN6 with ClpP14) (Escherichia coli | E. coli) (UniProt P0A6H1).
Assay [3] concerns the target YbeA-ssrA (Escherichia coli | not stated). The assay can be described thus: SEC; analytical SEC on an S200 10/300 GL column, 0.5-1 mL/min, molecular mass from Kav against a calibration curve of low molecular weight standards.

As to ThiS-YbeA-ssrA, the stoichiometry N in assay [1] was 2.
Substance UCH-L1-ssrA (enzyme) had a degradation of PR65/A-ssrA by ClpXP in competition with equimolar UCH-L1-ssrA (5 µM each), SDS-PAGE and densitometry in assay [2] of 2 fold.
On to YbeA-ssrA (enzyme), for which the stoichiometry N in assay [3] stood at 2.
